The values that follow come from patent US20220348932A1.

The test concerns the target NADH-dependent methanol dehydrogenase (MeDH) from Bacillus methanolicus MGA3, internal laboratory designation 2315 (tested as purified 2315A) (Bacillus methanolicus MGA3). In words: cell-based or functional assay.

For the substance “activator protein (ACT) from Bacillus methanolicus MGA3, internal laboratory designation 2317 (tested as purified 2317A) (enzyme)”, the ratio of ACT to MeDH in an in vitro methanol dehydrogenase activation test (5 M methanol, 2 mM NAD, 10 µM MeDH 2315A, pH 7.4) (ACT:MeDH ratio) came out at 10.
